Reference: the supplement of paper PMC10065799, “High-throughput profiling of sequence recognition by tyrosine kinases and SH2 domains using bacterial peptide display” (eLife, 2023)

test system: AncSZ; test: phosphorylation enrichment, bacterial display (enrichment ratio); higher = better substrate or ligand; peptides without Tyr show the background
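Note: 11-residue human phosphosite peptides and single-mutation variants displayed on the E. coli surface, counted by deep sequencing, each peptide's frequency after selection divided by its frequency in the unselected input library; frequency after pTyr selection over input frequency; kinase dosed for 20-30% of maximal phosphorylation in three min.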

| Sequence | phosphorylation enrichment |
| --- | --- |
| HFVDEYDQTIE [KRAS_Y32_P34Q] | 2.79 |
| TGGLEYIVPLM [CLCN4_Y548] | 2.14 |
| ECKLLYSRKEG [PTPN11_Y263] | 0.855 |
| GLQDEYDFKCK [STAT1_Y170_D165G] | 1.09 |
| EGDGVYTLNNE [HP_Y125] | 1.26 |
| RHPLEYLRQYP [NARS2_Y138] | 0.664 |
| INNKMYDPKMN [ENPP1_Y280_D276N] | 0.535 |
| DGMADCSDPSF [CDC5L_Y459_Y459C_YF] | 1.21 |
| FTRNYYVRAVL [CYBA_Y88] | 1.19 |
| IHRWVYPLTPE [EIF2B5_Y319_R315H] | 1.03 |
| QLAPQYTYAQG [FLNA_Y1761] | 0.722 |
| NLAAQYTTVGR [SGSH_Y240_D235N] | 0.444 |
| INMKKYCKKDY [NTN1_Y490] | 0.626 |
| QLAPQYTFTQG [FLNA_Y1761_A1764T_YF] | 1.27 |
| FADIAYNFRHA [PAH_Y166_G171A_YF] | 0.661 |
| LTTEVYFPSIK [C5orf64_Y60_A57T] | 0.946 |
| LANNEYFFQVC | 3.75 |

| Sequence | phosphorylation enrichment |
| --- | --- |
| ADGLEYSRTGL [MMUT_Y287] | 0.99 |
| RHPREYQDLLN [DES_Y388_L385P] | 0.668 |
| CVVVPYEPPEV [TP53_Y220_S215C] | 1.65 |
| NKFVAYIESQG [KDM4B_Y34_YF] | 0.899 |
| KRTFEYEAEKN [DENND2B_Y396_D399E] | 0.771 |
| SELVRYDARVH [MET_Y971] | 0.595 |
| FVPSFYHAFSG [ACTN4_Y265_S262P_YF] | 0.711 |
| GKGGSYSQAAS [HLA-B_Y344_C349S] | 0.548 |
| QKMADYSNKLH [PDPR_Y104_Y109H] | 0.843 |
| KDHPDYKYQAR [SOX10_Y171_P175A] | 0.606 |
| IQKWEYVPLGT [FAH_Y244_P249T] | 0.954 |
| DPAFGYEDFTR [SESN2_Y323_T320A] | 1.08 |
| CCNHPYRINGA [CHD7_Y1256_L1257R] | 0.505 |
| EILLSYLRTGF [TGM1_Y365_YF] | 1.05 |
| DLKFHYDNTAG [KDR_Y1214_P1210L] | 0.804 |
| AVVEPYNSILT [TUBA1A_Y185] | 0.686 |

target: EPHB1 (UniProt P54762); test: as above
Sequence (P54762 whole entry, looked up): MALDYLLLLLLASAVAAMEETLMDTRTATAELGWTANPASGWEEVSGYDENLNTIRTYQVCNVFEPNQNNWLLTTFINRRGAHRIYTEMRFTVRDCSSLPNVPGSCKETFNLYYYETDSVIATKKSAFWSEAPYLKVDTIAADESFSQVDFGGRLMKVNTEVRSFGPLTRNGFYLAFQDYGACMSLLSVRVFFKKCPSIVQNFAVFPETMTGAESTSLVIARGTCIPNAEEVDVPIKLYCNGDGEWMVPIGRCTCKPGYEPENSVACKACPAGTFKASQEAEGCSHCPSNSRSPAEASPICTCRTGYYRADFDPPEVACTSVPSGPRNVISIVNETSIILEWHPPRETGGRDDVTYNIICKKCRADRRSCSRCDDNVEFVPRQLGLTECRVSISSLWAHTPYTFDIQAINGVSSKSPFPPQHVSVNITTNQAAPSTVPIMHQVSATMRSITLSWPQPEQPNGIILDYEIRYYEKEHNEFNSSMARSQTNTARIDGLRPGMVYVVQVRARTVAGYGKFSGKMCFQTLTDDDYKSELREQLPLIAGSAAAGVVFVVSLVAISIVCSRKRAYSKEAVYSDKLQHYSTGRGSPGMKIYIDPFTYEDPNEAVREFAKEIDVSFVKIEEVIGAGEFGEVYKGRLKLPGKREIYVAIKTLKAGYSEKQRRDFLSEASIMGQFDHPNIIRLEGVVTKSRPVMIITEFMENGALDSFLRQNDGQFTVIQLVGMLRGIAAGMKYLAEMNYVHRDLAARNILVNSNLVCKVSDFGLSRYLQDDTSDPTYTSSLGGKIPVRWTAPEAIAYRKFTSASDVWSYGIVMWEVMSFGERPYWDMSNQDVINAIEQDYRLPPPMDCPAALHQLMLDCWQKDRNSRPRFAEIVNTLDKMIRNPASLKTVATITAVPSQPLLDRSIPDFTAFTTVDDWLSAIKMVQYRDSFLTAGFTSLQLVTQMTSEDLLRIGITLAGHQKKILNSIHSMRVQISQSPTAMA

| Sequence | phosphorylation enrichment |
| --- | --- |
| HFVDEYDQTIE [KRAS_Y32_P34Q] | 1.1 |
| TGGLEYIVPLM [CLCN4_Y548] | 0.797 |
| ECKLLYSRKEG [PTPN11_Y263] | 0.436 |
| GLQDEYDFKCK [STAT1_Y170_D165G] | 0.509 |
| EGDGVYTLNNE [HP_Y125] | 0.602 |
| RHPLEYLRQYP [NARS2_Y138] | 0.523 |
| INNKMYDPKMN [ENPP1_Y280_D276N] | 0.44 |
| DGMADCSDPSF [CDC5L_Y459_Y459C_YF] | 0.627 |
| FTRNYYVRAVL [CYBA_Y88] | 0.622 |
| IHRWVYPLTPE [EIF2B5_Y319_R315H] | 0.525 |
| QLAPQYTYAQG [FLNA_Y1761] | 0.52 |
| NLAAQYTTVGR [SGSH_Y240_D235N] | 0.304 |
| INMKKYCKKDY [NTN1_Y490] | 0.424 |
| QLAPQYTFTQG [FLNA_Y1761_A1764T_YF] | 0.621 |
| FADIAYNFRHA [PAH_Y166_G171A_YF] | 0.293 |
| LTTEVYFPSIK [C5orf64_Y60_A57T] | 0.436 |
| LANNEYFFQVC | 1.55 |

| Sequence | phosphorylation enrichment |
| --- | --- |
| ADGLEYSRTGL [MMUT_Y287] | 0.555 |
| RHPREYQDLLN [DES_Y388_L385P] | 0.537 |
| CVVVPYEPPEV [TP53_Y220_S215C] | 0.864 |
| NKFVAYIESQG [KDM4B_Y34_YF] | 0.526 |
| KRTFEYEAEKN [DENND2B_Y396_D399E] | 0.43 |
| SELVRYDARVH [MET_Y971] | 0.388 |
| FVPSFYHAFSG [ACTN4_Y265_S262P_YF] | 1.23 |
| GKGGSYSQAAS [HLA-B_Y344_C349S] | 0.47 |
| QKMADYSNKLH [PDPR_Y104_Y109H] | 0.569 |
| KDHPDYKYQAR [SOX10_Y171_P175A] | 0.427 |
| IQKWEYVPLGT [FAH_Y244_P249T] | 0.768 |
| DPAFGYEDFTR [SESN2_Y323_T320A] | 0.455 |
| CCNHPYRINGA [CHD7_Y1256_L1257R] | 0.38 |
| EILLSYLRTGF [TGM1_Y365_YF] | 0.418 |
| DLKFHYDNTAG [KDR_Y1214_P1210L] | 0.515 |
| AVVEPYNSILT [TUBA1A_Y185] | 0.489 |

target: EPHB2 (UniProt P29323); test: as above
Sequence (P29323 whole entry, looked up): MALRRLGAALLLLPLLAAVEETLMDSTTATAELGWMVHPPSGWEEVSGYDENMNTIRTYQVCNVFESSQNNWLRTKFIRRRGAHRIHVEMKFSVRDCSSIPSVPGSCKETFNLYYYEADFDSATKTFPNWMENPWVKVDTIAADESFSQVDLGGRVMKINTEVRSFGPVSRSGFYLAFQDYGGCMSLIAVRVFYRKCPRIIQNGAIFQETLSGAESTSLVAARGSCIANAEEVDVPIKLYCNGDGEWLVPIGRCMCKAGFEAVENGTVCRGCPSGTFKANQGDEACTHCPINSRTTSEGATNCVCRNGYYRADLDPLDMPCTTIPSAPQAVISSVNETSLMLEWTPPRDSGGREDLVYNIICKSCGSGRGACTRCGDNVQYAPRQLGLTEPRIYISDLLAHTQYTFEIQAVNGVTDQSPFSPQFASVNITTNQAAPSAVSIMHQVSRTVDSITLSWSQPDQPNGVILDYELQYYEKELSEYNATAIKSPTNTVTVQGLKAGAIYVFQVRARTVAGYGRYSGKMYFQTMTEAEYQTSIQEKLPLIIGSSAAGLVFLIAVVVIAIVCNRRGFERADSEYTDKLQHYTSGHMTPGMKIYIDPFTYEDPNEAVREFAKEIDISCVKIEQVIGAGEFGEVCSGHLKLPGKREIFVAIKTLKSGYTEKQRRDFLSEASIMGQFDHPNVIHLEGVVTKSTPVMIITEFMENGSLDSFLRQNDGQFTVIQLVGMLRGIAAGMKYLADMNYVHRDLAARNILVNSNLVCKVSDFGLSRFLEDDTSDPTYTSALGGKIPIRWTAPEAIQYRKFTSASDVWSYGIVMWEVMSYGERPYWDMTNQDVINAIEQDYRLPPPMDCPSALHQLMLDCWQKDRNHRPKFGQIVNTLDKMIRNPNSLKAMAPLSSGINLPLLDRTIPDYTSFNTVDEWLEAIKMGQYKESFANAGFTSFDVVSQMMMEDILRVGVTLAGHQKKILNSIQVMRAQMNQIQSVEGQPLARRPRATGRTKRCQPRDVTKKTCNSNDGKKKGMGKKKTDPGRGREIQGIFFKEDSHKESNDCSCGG

| Sequence | phosphorylation enrichment |
| --- | --- |
| HFVDEYDQTIE [KRAS_Y32_P34Q] | 1.07 |
| TGGLEYIVPLM [CLCN4_Y548] | 0.787 |
| ECKLLYSRKEG [PTPN11_Y263] | 0.513 |
| GLQDEYDFKCK [STAT1_Y170_D165G] | 0.63 |
| EGDGVYTLNNE [HP_Y125] | 0.633 |
| RHPLEYLRQYP [NARS2_Y138] | 0.45 |
| INNKMYDPKMN [ENPP1_Y280_D276N] | 0.432 |
| DGMADCSDPSF [CDC5L_Y459_Y459C_YF] | 0.659 |
| FTRNYYVRAVL [CYBA_Y88] | 0.609 |
| IHRWVYPLTPE [EIF2B5_Y319_R315H] | 0.503 |
| QLAPQYTYAQG [FLNA_Y1761] | 1.19 |
| NLAAQYTTVGR [SGSH_Y240_D235N] | 0.312 |
| INMKKYCKKDY [NTN1_Y490] | 0.298 |
| QLAPQYTFTQG [FLNA_Y1761_A1764T_YF] | 0.845 |
| FADIAYNFRHA [PAH_Y166_G171A_YF] | 0.342 |
| LTTEVYFPSIK [C5orf64_Y60_A57T] | 0.628 |
| LANNEYFFQVC | 0.804 |

| Sequence | phosphorylation enrichment |
| --- | --- |
| ADGLEYSRTGL [MMUT_Y287] | 1.6 |
| RHPREYQDLLN [DES_Y388_L385P] | 0.569 |
| CVVVPYEPPEV [TP53_Y220_S215C] | 0.641 |
| NKFVAYIESQG [KDM4B_Y34_YF] | 0.553 |
| KRTFEYEAEKN [DENND2B_Y396_D399E] | 0.431 |
| SELVRYDARVH [MET_Y971] | 0.494 |
| FVPSFYHAFSG [ACTN4_Y265_S262P_YF] | 0.756 |
| GKGGSYSQAAS [HLA-B_Y344_C349S] | 0.41 |
| QKMADYSNKLH [PDPR_Y104_Y109H] | 0.864 |
| KDHPDYKYQAR [SOX10_Y171_P175A] | 0.416 |
| IQKWEYVPLGT [FAH_Y244_P249T] | 0.532 |
| DPAFGYEDFTR [SESN2_Y323_T320A] | 0.577 |
| CCNHPYRINGA [CHD7_Y1256_L1257R] | 0.46 |
| EILLSYLRTGF [TGM1_Y365_YF] | 0.967 |
| DLKFHYDNTAG [KDR_Y1214_P1210L] | 0.504 |
| AVVEPYNSILT [TUBA1A_Y185] | 0.365 |

target: FGFR1 (UniProt P11362); test: as above
Sequence (P11362 whole entry, looked up): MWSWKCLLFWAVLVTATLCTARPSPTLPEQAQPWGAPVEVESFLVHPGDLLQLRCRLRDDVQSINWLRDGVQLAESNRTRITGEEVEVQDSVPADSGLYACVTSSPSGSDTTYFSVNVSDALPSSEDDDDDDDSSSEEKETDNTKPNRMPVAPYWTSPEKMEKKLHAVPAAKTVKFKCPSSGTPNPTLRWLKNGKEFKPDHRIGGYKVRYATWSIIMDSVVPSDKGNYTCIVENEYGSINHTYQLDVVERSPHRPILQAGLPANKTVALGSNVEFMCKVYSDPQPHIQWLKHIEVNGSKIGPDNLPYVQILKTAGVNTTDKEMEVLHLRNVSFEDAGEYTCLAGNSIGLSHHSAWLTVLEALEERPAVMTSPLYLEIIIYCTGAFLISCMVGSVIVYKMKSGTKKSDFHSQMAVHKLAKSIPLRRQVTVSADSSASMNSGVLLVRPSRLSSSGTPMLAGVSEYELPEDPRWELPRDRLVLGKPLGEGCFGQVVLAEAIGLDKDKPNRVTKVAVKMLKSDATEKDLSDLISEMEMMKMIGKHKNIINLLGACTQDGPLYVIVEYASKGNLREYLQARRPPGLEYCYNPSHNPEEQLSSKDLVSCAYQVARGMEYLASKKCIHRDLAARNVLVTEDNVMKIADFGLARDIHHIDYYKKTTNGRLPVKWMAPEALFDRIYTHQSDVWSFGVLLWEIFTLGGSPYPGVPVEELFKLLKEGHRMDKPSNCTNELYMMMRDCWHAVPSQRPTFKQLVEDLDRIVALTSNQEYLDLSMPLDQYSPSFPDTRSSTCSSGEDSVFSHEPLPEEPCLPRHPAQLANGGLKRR

| Sequence | phosphorylation enrichment |
| --- | --- |
| HFVDEYDQTIE [KRAS_Y32_P34Q] | 0.93 |
| TGGLEYIVPLM [CLCN4_Y548] | 3 |
| ECKLLYSRKEG [PTPN11_Y263] | 0.487 |
| GLQDEYDFKCK [STAT1_Y170_D165G] | 0.626 |
| EGDGVYTLNNE [HP_Y125] | 0.595 |
| RHPLEYLRQYP [NARS2_Y138] | 0.75 |
| INNKMYDPKMN [ENPP1_Y280_D276N] | 0.389 |
| DGMADCSDPSF [CDC5L_Y459_Y459C_YF] | 0.533 |
| FTRNYYVRAVL [CYBA_Y88] | 0.629 |
| IHRWVYPLTPE [EIF2B5_Y319_R315H] | 0.488 |
| QLAPQYTYAQG [FLNA_Y1761] | 0.714 |
| NLAAQYTTVGR [SGSH_Y240_D235N] | 0.376 |
| INMKKYCKKDY [NTN1_Y490] | 0.45 |
| QLAPQYTFTQG [FLNA_Y1761_A1764T_YF] | 0.918 |
| FADIAYNFRHA [PAH_Y166_G171A_YF] | 0.386 |
| LTTEVYFPSIK [C5orf64_Y60_A57T] | 0.775 |
| LANNEYFFQVC | 12.8 |

| Sequence | phosphorylation enrichment |
| --- | --- |
| ADGLEYSRTGL [MMUT_Y287] | 0.602 |
| RHPREYQDLLN [DES_Y388_L385P] | 0.377 |
| CVVVPYEPPEV [TP53_Y220_S215C] | 0.574 |
| NKFVAYIESQG [KDM4B_Y34_YF] | 0.491 |
| KRTFEYEAEKN [DENND2B_Y396_D399E] | 0.511 |
| SELVRYDARVH [MET_Y971] | 0.479 |
| FVPSFYHAFSG [ACTN4_Y265_S262P_YF] | 0.796 |
| GKGGSYSQAAS [HLA-B_Y344_C349S] | 0.515 |
| QKMADYSNKLH [PDPR_Y104_Y109H] | 0.527 |
| KDHPDYKYQAR [SOX10_Y171_P175A] | 0.416 |
| IQKWEYVPLGT [FAH_Y244_P249T] | 1.06 |
| DPAFGYEDFTR [SESN2_Y323_T320A] | 0.569 |
| CCNHPYRINGA [CHD7_Y1256_L1257R] | 0.575 |
| EILLSYLRTGF [TGM1_Y365_YF] | 0.433 |
| DLKFHYDNTAG [KDR_Y1214_P1210L] | 0.517 |
| AVVEPYNSILT [TUBA1A_Y185] | 0.438 |
